Target: huCD5-BTN (human) (UniProt P06127)
Test: BLI in tandem, huCD5-BTN saturated with UCHT2 first; competitor UCHT2

Chain of huCD5-BTN (human) (P06127 25-372 limits assumed): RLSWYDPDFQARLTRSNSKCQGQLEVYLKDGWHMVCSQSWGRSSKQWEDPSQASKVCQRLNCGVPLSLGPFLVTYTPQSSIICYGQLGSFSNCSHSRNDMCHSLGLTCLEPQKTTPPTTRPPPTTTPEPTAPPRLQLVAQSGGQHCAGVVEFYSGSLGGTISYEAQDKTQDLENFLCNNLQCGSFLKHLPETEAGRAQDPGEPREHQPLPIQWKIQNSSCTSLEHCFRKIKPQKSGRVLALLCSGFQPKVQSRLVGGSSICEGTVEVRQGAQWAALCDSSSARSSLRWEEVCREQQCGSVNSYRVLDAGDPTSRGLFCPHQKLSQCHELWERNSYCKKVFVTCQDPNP

How did the response (Response Units) turn out when UCHT2 (antibody) was run?
The response (Response Units) was 0.

Source: patent publication US20260159603A1
